This note sets out measurements from US20190085055A1.

Values joined by “and” are separate entries in the source; they are usually repeats but may differ in a detail not shown here. Equal values may be shown once.

Assay [1] deals with D3H44 light chain F116A_L135A. Briefly: LCCA (SPR), competitor L1 L135W.
Assay [2] concerns the target D3H44 light chain F116A_L135V. Briefly: LCCA (SPR), competitor L1 L135W.
The target of assay [3] is D3H44 light chain F116A_L135A. Briefly: LCCA (SPR), competitor L1 L135W_N137A.
The target of assay [4] is D3H44 light chain L135W_N137A. Briefly: LCCA (SPR), competitor L2 F116A_L135A.
Assay [5] concerns the target D3H44 light chain L135W. Briefly: LCCA (SPR), competitor L2 F116A_L135A.
Assay [6] addresses D3H44 light chain L135W. Briefly: LCCA (SPR), competitor L2 F116A_L135V.
The target of another assay is D3H44 light chain F116A. Briefly: LCCA (SPR), competitor L1 WT.
Assay [7] has as its target D3H44 light chain F118W_V133S. Briefly: LCCA (SPR), competitor L1 F116S.
Assay [8] addresses D3H44 light chain, wild type. Briefly: LCCA (SPR), competitor L2 F116A.
In another assay the target is D3H44 light chain F116S. Briefly: LCCA (SPR), competitor L2 F118W_V133S.
A further assay deals with D3H44 light chain F98L. Briefly: LCCA (SPR), competitor L1 WT.
The target in assay [9] is D3H44 light chain, wild type. Briefly: LCCA (SPR), competitor L2 F98L.
The target in another assay is D3H44 light chain S176L. Briefly: LCCA (SPR), competitor L2 WT.
Assay [10] concerns the target D3H44 light chain, wild type. Briefly: LCCA (SPR), competitor L1 S176L.
A further assay addresses D3H44 light chain P44W. Briefly: LCCA (SPR), competitor L1 Y87G.
Another assay concerns the target D3H44 light chain Y87G. Briefly: LCCA (SPR), competitor L2 P44W.
A further assay addresses D3H44 light chain Q38D. Briefly: LCCA (SPR), competitor L1 Q38R.
The next assay addresses D3H44 light chain Q38R. Briefly: LCCA (SPR), competitor L2 Q38D.
Assay [11] deals with D3H44 light chain Q38N_T85K. Briefly: LCCA (SPR), competitor L1 Q38N_T85E.
Assay [12] has as its target D3H44 light chain Q38N_T85E. Briefly: LCCA (SPR), competitor L2 Q38N_T85K.
The next assay addresses D3H44 light chain F98A. Briefly: LCCA (SPR), competitor L1 Q38R.

Chain of D3H44 light chain Q38N_T85K (light, as listed by the source limits assumed): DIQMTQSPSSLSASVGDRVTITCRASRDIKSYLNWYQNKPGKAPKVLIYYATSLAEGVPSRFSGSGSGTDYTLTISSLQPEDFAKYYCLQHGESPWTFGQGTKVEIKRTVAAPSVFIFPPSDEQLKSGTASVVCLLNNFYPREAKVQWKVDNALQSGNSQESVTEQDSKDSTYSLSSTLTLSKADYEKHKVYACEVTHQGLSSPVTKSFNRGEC
Chain of D3H44 light chain, wild type (light, as listed by the source): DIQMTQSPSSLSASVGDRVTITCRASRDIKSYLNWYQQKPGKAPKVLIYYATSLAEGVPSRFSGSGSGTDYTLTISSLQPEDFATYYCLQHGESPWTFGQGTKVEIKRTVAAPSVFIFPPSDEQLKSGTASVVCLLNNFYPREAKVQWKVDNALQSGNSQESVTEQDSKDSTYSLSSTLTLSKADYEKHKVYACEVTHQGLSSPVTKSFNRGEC
Chain of D3H44 light chain L135W (light, as listed by the source): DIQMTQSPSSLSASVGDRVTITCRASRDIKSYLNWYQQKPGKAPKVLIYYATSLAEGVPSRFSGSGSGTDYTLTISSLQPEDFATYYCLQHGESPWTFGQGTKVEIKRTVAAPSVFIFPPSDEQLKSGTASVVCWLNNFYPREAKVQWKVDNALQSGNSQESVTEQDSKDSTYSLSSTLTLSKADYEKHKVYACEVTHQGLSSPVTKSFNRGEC
Chain of D3H44 light chain Q38N_T85E (light, as listed by the source limits assumed): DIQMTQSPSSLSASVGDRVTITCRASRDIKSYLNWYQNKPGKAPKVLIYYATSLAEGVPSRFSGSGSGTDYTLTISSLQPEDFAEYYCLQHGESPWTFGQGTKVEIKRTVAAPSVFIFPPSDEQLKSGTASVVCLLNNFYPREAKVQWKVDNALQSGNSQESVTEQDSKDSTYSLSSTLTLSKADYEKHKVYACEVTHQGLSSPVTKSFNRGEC
Chain of D3H44 light chain Q38R (light, as listed by the source): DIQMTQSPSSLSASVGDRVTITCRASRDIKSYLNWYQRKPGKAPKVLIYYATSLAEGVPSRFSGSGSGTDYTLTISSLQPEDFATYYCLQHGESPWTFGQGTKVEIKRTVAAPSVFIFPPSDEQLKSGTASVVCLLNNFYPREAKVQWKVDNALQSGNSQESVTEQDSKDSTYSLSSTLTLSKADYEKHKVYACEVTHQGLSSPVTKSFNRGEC
Chain of D3H44 light chain Y87G (light, as listed by the source limits assumed): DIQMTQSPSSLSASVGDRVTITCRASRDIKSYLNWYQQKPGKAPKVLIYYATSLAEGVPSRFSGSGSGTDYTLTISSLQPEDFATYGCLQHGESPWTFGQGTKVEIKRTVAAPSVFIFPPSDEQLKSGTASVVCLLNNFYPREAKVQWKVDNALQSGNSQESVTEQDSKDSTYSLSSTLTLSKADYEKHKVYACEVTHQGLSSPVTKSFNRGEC
Chain of D3H44 light chain Q38D (light, as listed by the source limits assumed): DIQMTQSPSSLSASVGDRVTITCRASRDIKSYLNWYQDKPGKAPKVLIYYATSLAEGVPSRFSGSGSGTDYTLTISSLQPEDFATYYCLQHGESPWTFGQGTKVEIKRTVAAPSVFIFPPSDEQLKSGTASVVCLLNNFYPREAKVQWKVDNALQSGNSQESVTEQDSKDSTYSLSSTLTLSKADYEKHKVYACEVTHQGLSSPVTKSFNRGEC
Chain of D3H44 light chain S176L (light, as listed by the source): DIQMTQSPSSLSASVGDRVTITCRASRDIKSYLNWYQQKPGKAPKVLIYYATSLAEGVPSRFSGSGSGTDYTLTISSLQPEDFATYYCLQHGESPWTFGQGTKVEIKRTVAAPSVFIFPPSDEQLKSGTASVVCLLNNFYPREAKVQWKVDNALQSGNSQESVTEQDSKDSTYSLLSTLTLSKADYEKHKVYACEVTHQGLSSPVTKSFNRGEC

With “D3H44 heavy chain (Fab format) A139G_V190A”, the H1 L2 of H1 L1:H1 L2 (screen) in [1] worked out at 10.1; in assay [2], 13.8; in [3], 5.16. Moreover, the H1 L2 of H1 L1:H1 L2 (verification) in [1] is 10.6; in assay [2] it was 48.3. The results for the H1 L1 of H1 L1:H1 L2 (screen) (in [4]; with D3H44 light chain L135W [5]; in the assay with D3H44 light chain L135W [6]) were 70.5, 65 and 68.4, respectively. The H1 L1 of H1 L1:H1 L2 (verification) with D3H44 light chain L135W [5] was found to be 69.5; with D3H44 light chain L135W [6] it was 49.

In the assay with D3H44 light chain F116A, D3H44 heavy chain (Fab format) A139W displayed an H1 L2 of H1 L1:H1 L2 (screen) of 30.5. The H2 L2 of H2 L2:H2 L1 (screen) in [7] amounted to 76.5; in [1], 77.4; in assay [2], 62.7; in [3], 73.6. In addition, the H2 L2 of H2 L2:H2 L1 (verification) in [7] is 38.1 and 40.9; in assay [1], 78.7; in [2], 76.7. In assay [8], this substance displayed an H1 L1 of H1 L1:H1 L2 (screen) of 58.7. For the same substance, the H2 L1 of H2 L2:H2 L1 (screen) in assay [4] is 19.8; with D3H44 light chain L135W [5], 17.4; with D3H44 light chain L135W [6], 34.6; with D3H44 light chain F116S, 4.6. In addition, the H2 L1 of H2 L2:H2 L1 (verification) in the assay with D3H44 light chain L135W [5] was 10.2; with D3H44 light chain L135W [6], 19.1; with D3H44 light chain F116S, 40.9 and 38.1.

For D3H44 heavy chain (Fab format) F100W, in the assay with D3H44 light chain F98L, the H2 L2 of H2 L2:H2 L1 (screen) turned out to be 56.8 and the H2 L2 of H2 L2:H2 L1 (verification) was 38.9. In assay [9], this substance showed an H2 L1 of H2 L2:H2 L1 (screen) of 29.7 and an H2 L1 of H2 L2:H2 L1 (verification) of 44.9.

Consider “D3H44 heavy chain (Fab format) F174V_S188L”, for which, in the assay with D3H44 light chain S176L, the H2 L1 of H2 L2:H2 L1 (screen) is 5.94. Besides, in assay [10], the H2 L2 of H2 L2:H2 L1 (screen) is 103.

In the case of D3H44 heavy chain (Fab format) L45W, in the assay with D3H44 light chain P44W, the H1 L2 of H1 L1:H1 L2 (screen) was 23.9 and the H1 L2 of H1 L1:H1 L2 (verification) was 31. In the assay with D3H44 light chain Y87G, this substance gave an H1 L1 of H1 L1:H1 L2 (screen) of 54.5 and an H1 L1 of H1 L1:H1 L2 (verification) of 58.1.

In the assay with D3H44 light chain Q38D, D3H44 heavy chain (Fab format) Q39D had an H1 L2 of H1 L1:H1 L2 (screen) of 34.5 and an H1 L2 of H1 L1:H1 L2 (verification) of 31.1. In the assay with D3H44 light chain Q38R, this substance registered an H1 L1 of H1 L1:H1 L2 (screen) of 66.9 and an H1 L1 of H1 L1:H1 L2 (verification) of 61.8. In assay [11], this substance showed an H2 L2 of H2 L2:H2 L1 (screen) of 71.7. The same substance yielded an H2 L1 of H2 L2:H2 L1 (screen) in [12] of 27.4.

In the assay with D3H44 light chain F98A, D3H44 heavy chain (Fab format) Q39E gave an H1 L2 of H1 L1:H1 L2 (screen) of 29.7 and an H1 L2 of H1 L1:H1 L2 (verification) of 7.2.

With D3H44 heavy chain (Fab format) Q39K, in assay [11], the H1 L2 of H1 L1:H1 L2 (screen) was 30.1 and the H1 L2 of H1 L1:H1 L2 (verification) came out at 21.7. In assay [12], this substance had an H1 L1 of H1 L1:H1 L2 (screen) of 54.8 and an H1 L1 of H1 L1:H1 L2 (verification) of 66.5.
